From patent US20030206925A1 (Pfizer, published 2003)

T1: measles virus nucleocapsid (N) protein, Edmonston wild-type (measles virus (Edmonston wild-type), UniProt P04851 1-525)
T1 sequence (looked up): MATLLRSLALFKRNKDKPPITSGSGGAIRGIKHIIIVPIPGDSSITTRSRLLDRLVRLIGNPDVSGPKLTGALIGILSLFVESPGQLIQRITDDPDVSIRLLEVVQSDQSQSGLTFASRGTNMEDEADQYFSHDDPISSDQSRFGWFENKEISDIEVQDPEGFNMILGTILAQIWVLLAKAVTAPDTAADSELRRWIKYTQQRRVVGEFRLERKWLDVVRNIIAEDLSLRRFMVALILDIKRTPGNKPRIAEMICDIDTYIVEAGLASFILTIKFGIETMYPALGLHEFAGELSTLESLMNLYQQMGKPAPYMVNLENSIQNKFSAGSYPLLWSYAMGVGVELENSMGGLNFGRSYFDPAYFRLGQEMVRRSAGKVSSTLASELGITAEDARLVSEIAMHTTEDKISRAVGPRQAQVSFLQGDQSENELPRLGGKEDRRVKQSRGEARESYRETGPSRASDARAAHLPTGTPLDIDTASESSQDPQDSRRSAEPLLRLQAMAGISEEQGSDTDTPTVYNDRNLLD

B1: measles virus V protein mutant haV-11 (deletion of amino acids 1-20 and 208-230) (other)
chain: MAYPYDVPDYAAEPIGSLAIEEAMAAWSEISDNPGQERATCREEKAGSSGLSKPCLSAIGSTEGGAPRIRGQGPGESDDDAETLGIPPRNLQASSTGLQCYYVYDHSGEAVKGIQDADSIMVQSGLDGDSTLSGGDNESENSDVDIGEPDTEGYAITDRGSAPISMGFRASDVETAEGGEIHELLRLQSRGNNFPKLEGHRREISLIWNGDRVFIDRWCNPMCSKVTLGTIRARCTCGECPRVCEQCRTDTGVDTRIWYHNLPEIPE
notes: Made in the pMV-haV-wt backbone by deletion mutagenesis
B2: measles virus V protein mutant haV-9 (deletion of amino acids 1-20) (other)
chain: MAYPYDVPDYAAEPIGSLAIEEAMAAWSEISDNPGQERATCREEKAGSSGLSKPCLSAIGSTEGGAPRIRGQGPGESDDDAETLGIPPRNLQASSTGLQCYYVYDHSGEAVKGIQDADSIMVQSGLDGDSTLSGGDNESENSDVDIGEPDTEGYAITDRGSAPISMGFRASDVETAEGGEIHELLRLQSRGNNFPKLEKTLNVPPPPDPGRASTSETPIKKGHRREISLIWNGDRVFIDRWCNPMCSKVTLGTIRARCTCGECPRVCEQCRTDTGVDTRIWYHNLPEIPE
notes: as for B1

Target: T1, measles virus nucleocapsid (N) protein, …
Assay: separate experiment, method not described, data not shown

Binder	binding result
B1	no binding
B2	no binding
